The record followed here is patent US20050085420A1, “Method of modulating apoptosis and compositions thereof” (priority 2003, published 2005).

The test system of one series is MEFs. Briefly: G418 selection of mouse embryonic fibroblasts. The series is classed as cell-based. The settings on record: 0.3 mg/ml G418, 3 days. How it is done: vdac1 -/- and vdac2 -/- embryonic stem (ES) cells were described previously S. Wu, M. J. Sampson, W. K. Decker, W. J. Craigen, Biochim Biophys Acta 1452, 68-78. (1999). 129/SvEv derived ES cell clones with homozygous deletion of vdac2 alleles were microinjected into blastocysts from C57BL/6 female mice. Mouse embryonic fibroblasts derived from E13.5 day chimeric embryos were treated with 0.3 mg/ml G418 (GIBCO-BRL) at second passage for 5 days to select for vdac2 -/- cells. Normally, 100% of MEFs died at 3 days in the presence of 0.3 mg/ml G418. Deficiency of VDAC2 in cells following G418 selection was confirmed by an immunoblot developed with an anti-VDAC2 Ab.

The target of another series is VDAC1 (endogenous) (mouse, UniProt Q60932-2 2-283, limits assumed). Nature of the series: DSS crosslinking of vdac2-deficient ES cells, anti-BAK immunoblot. In general terms: In western blotting, separated proteins are transferred to a membrane and probed.
Sequence of VDAC1 (endogenous) (Q60932 15-296 limits assumed): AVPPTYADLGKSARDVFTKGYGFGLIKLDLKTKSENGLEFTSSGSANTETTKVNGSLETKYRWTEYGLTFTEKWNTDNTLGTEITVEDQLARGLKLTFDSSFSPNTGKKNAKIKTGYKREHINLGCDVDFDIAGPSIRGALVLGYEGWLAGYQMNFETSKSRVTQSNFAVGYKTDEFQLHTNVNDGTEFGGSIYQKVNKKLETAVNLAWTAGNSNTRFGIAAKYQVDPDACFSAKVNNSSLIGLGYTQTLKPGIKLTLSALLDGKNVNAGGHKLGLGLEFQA
Series [1] deals with the molecule itself. Briefly: Superdex 200 gel filtration of mitochondrial lysates in 2% CHAPS, anti-BAK immunoblot. On the procedure:
The chromatographic step of Superdex 200 (HR 10/30, Amersham-Pharmacia) was performed on an automatic fast protein liquid chromatography (FPLC) station (Amersham-Pharmacia) at 4° C. The column was equilibrated with buffer containing 2% CHAPS, 300 mM NaCl, 0.2 mM DTT, and 25 mM Hepes, pH 7.5 and calibrated with thyroglobulin (669 kD, Amersham-Pharmacia), ferritin (440 kD, Amersham-Pharmacia), catalase (232 kD, Amersham-Pharmacia), aldolase (158 kD, Amersham-Pharmacia), bovine serum albumin (66 kD, Calbiochem), and cytochrome c (14 kD, Sigma). 200 μl of mitochondrial lysates (1 mg/ml protein in the same buffer as above) was loaded onto the column, eluted at a flow rate of 0.3 ml/minute. Fractions of 0.6 ml were collected, precipitated by trichloroacetic acid, and analyzed by an immunoblot (fractions 16-31) developed with an anti-BAK Ab.

Series [2] addresses T1, VDAC2 (endogenous, or untagged murine vdac2 re-expressed by retrovirus) (murine, UniProt Q60930 1-295).
T1 construct: In mitochondria or whole cells; also called Voltage-Dependent Anion Channel 2; protein X
T1 sequence (looked up): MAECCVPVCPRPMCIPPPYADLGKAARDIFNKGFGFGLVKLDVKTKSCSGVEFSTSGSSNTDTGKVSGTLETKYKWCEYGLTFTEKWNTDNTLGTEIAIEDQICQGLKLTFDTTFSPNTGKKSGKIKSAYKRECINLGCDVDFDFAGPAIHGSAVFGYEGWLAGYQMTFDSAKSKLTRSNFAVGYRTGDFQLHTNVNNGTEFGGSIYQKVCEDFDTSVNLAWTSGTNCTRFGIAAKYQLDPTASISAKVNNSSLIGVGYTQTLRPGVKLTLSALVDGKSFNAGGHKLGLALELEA
Briefly: restatement of the co-immunoprecipitation result.

Series [3] addresses T1, VDAC2 (endogenous, or untagged murine …). Briefly: DSS crosslinking of reconstituted Bax, Bak doubly-deficient MEFs, anti-BAK immunoblot.
Another series concerns the target T2, VDAC2 (Mus musculus, UniProt Q60930).
T2 construct: expressed in transfected cells; host or cells: vdac1 -/-, vdac3 -/- mouse fibroblasts; wt or vdac2 -/- MEFs; Bax, Bak doubly deficient MEFs (retrovirus pMIG)
T2 sequence (Q60930 1-295): T1 sequence (looked up)
Nature of the series: Anti-HA immunoprecipitation of HA-tagged VDAC2 with BH3-only molecules. The settings on record: mitochondria, anti-HA immunoprecipitation, 1% CHAPS (or 0.2% NP40). The series is classed as binding. From the text: Murine vdac1, vdac2, N-terminal HA-tagged vdac2, N-terminal-HA tagged Bax or Bak, as well as wild type and mutant Bak (mBH1, W122A, G123E, R124A; mBH3, L75E) were cloned into the retroviral expression vector MSCV-IRES-GFP (pMIG). PcDNA3-tBID (wt and mutants) was described previously M. C. Wei et al., Genes Dev 14, 2060-71. (2000). Generation of amphotropic retroviruses and retroviral infection were described previously E. H. Cheng et al., Mol Cell 8, 705-11. (2001). Retroviral expression of each indicated protein was confirmed by immunoblot. […]
The strength of association between BIM-EL and VDAC2 was compared to the strength of the association, if any, between BIM-EL and BAK or BAX. Mitochondria isolated from Bax, Bak doubly deficient MEFs transduced with retrovirus expressing N-terminal HA-tagged BAX, BAK, or VDAC2 were solubilized in 1% CHAPS or 0.2% NP-40 buffer, followed by anti-HA immunoprecipitation. The immunoprecipitates were analyzed by an immunoblot developed with anti-BIM. […] These findings indicate that BH3-only competition for VDAC2 frees BAK, which, in the absence of its specific inhibitor VDAC2, is prone to auto-activating homo-oligomerization. […]

The next series deals with T3, BAK-X complex (Mus musculus, UniProt O08734+Q60930).
T3 construct: isolation of mitochondria (50 μg) from wild-type (wt) mouse embryonic fibroblasts (MEFs); endogenous in cells; host or cells: mitochondria from wt MEFs
T3 sequence (O08734 2-209 limits assumed): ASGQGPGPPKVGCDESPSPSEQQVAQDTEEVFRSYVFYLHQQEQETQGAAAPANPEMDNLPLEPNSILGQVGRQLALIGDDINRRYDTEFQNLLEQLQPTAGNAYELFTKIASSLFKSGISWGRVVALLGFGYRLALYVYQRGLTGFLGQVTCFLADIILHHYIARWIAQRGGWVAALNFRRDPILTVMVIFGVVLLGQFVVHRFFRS
T3 sequence (Q60930 1-295): T1 sequence (looked up)
Nature of the series: DSS cross-linking of BAK-X complex in isolated mitochondria, anti-BAK immunoblot. The series is classed as biochemical. The settings on record: liver mitochondria 50 μg, 5 μl in vitro transcribed-translated mutant tBID, 30° C. 30 min. How it is done:
FIG. 1A is an illustration depicting isolation of mitochondria (50 μg) from wild-type (wt) mouse embryonic fibroblasts (MEFs). The isolated mitochondria were incubated with recombinant tBID protein (50 ng) at 30° C. for 30 min, followed by treatment with the cross-linkers disuccinimidyl suberate (DSS) (10 mM) or bismaleimidohexane (BMH) (10 mM) at room temperature for 30 minutes. Higher order BAK complexes were identified by immunoblot developed with an anti-BAK antibody.
FIG. 1C is an illustration depicting treatment of mitochondria (50 μg) isolated from mouse liver, Bal17, Jurkat, and FL5.12 cells with 50 ng tBID protein at 30° C. for 30 min, followed by DSS cross-linking. The BAK-X complex was detected by an immunoblot developed with anti-BAK antibody.
FIG. 1E is a photograph depicting isolated liver mitochondria (50 μg) which were incubated with 5 μl of in vitro transcribed-translated wt or mutant tBID at 30° C. for 30 min, followed by DSS cross-linking. The BAK-X complex was detected by an immunoblot developed with anti-BAK antibody. […]
Protein crosslinkers were used to search for a candidate protein that interacts with BAK at the mitochondria in viable cells. A ˜60 kD mobility-shifted complex immunoreactive with an antibody (Ab) to BAK was detected after treatment of purified mitochondria (FIG. 1A) or viable whole cells (FIG. 1B) with the crosslinker disuccinimidyl suberate (DSS). […]

The target in series [4] is T4, N-terminal HA-tagged VDAC2 (murine, UniProt Q60930 1-295).
T4 construct: also called HA-VDAC2; hemagglutinin (HA)-tagged version of VDAC2; not shown: N-terminal HA tag
T4 sequence (looked up): T1 sequence (looked up)
Briefly: anti-HA immunoprecipitation in 1% CHAPS or 0.2% NP40, anti-BIM immunoblot. From the text: Mitochondria isolated from wild-type MEFs or vdac2 -/- mouse embryonic fibroblasts (MEFS) with retroviral transduction of N-terminal HA-tagged VDAC2 were solubilized in either 1% CHAPS or 0.2% NP40 buffer, followed by anti-HA immunoprecipitation.

In series [5] the target is BCL-XL (in Bax, Bak doubly deficient MEFs) (mouse, UniProt Q64373-1 1-233). Nature of the series: anti-HA co-immunoprecipitation in 1% CHAPS.
Sequence of BCL-XL (in Bax, Bak doubly deficient MEFs) (Q64373 whole entry): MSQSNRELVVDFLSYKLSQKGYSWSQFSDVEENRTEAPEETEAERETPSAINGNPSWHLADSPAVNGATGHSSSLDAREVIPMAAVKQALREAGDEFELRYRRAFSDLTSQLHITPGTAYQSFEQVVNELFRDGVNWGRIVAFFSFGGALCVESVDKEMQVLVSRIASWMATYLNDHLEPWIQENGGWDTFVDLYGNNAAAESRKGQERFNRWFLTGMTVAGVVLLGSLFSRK
Series [6] has as its target T4, N-terminal HA-tagged VDAC2. Nature of the series: anti-HA immunoprecipitation in 1% CHAPS from Bax, Bak doubly deficient MEF mitochondria before or after etoposide, anti-PUMA immunoblot (FIG. 11B). On the procedure: For FIG. 11A, mitochondria isolated from vdac1 -/-, vdac3 -/- mouse fibroblasts with or without retroviral transduction of N-terminal HA-tagged VDAC2 were incubated with in vitro transcribed, translated PUMA protein at 30° C. for 30 min, followed by anti-HA immunoprecipitation in 1% CHAPS buffer. The immunoprecipitates were analyzed by an immunoblot developed with anti-PUMA. For FIG. 11B, mitochondria were isolated from Bax, Bak doubly deficient MEFs with or without retroviral transduction of N-terminal HA-tagged VDAC2 before or after etoposide treatment (10 μM) for 20 hours, followed by anti-HA immunoprecipitation in 1% CHAPS buffer. The immunoprecipitates were analyzed by an immunoblot developed with anti-PUMA (FIG. 11B, lower panel).

Substitutions are numbered along the chain they refer to. Names and notes keep the numbering of the source.

As to `CN[C@@H]1[C@@H](O)[C@@H](O[C@@H]2[C@@H](O)[C@H](O[C@H]3O[C@H]([C@@H](C)O)[C@@H](O)[C@H](O)[C@H]3N)[C@@H](N)C[C@H]2N)OC[C@]1(C)O` [G418], the MEFs died with MEFs was 100%.

B1: BAK (endogenous, or wild type Bak reconstituted by retrovirus) (other, murine, UniProt O08734 2-209, looked up)
chain: T3 sequence (O08734 2-209 limits assumed)
notes: Integral mitochondrial membrane protein, tested in mitochondria or whole cells; also called endogenous BAK; wt Bak
For B1, the figures for the binding result (with VDAC1 (endogenous); in series [1]; in series [2]) were “no binding”, “binds” and “binds”, respectively.

B2: mutant Bak mBH3 (L75E) (other, murine, UniProt O08734 2-209, looked up)
chain: T3 sequence (O08734 2-209 limits assumed) with L75E
notes: also called BAK mutated within the BH3 domain (L75E)
As to B2, the binding result in series [3] is listed as “no binding”.

B3: mutant tBID mIII.4 (G94E) (other, UniProt P70444 60-195, looked up)
chain: GSQASRSFNQGRIEPDSESQEEIIHNIARHLAQIEDEMDHNIQPTLVRQLAAQFMNGSLSEEDKRNCLAKALDEVKTAFPRDMENDKAMLIMTMLLAKKVASHAPSLLRDVFHTTVNFINQNLFSYVRNLVRNEMD
notes: domain: p15 tBID; also called m111.4 mutant; m l 11.4
With B3, in the series with VDAC2, the “interaction with HA-tagged VDAC2 (co-immunoprecipitation)” value is given as “did not recognize VDAC2”. The “dissociation of the BAK-X complex by mutant tBID” value with BAK-X complex is “not”.

B4: BIM-EL (endogenous) (other, mouse, UniProt O54918-1 1-196, looked up)
chain: MAKQPSDVSSECDREGGQLQPAERPPQLRPGAPTSLQTEPQGNPDGEGDRCPHGSPQGPLAPPASPGPFATRSPLFIFVRRSSLLSRSSSGYFSFDTDRSPAPMSCDKSTQTPSPPCQAFNHYLSAMASIRQSQEEPEDLRPEIRIAQELRRIGDEFNETYTRRVFANDYREAEDHPQMVILQLLRFIFRLVWRRH
notes: also called BH3-only molecule BIM-EL
For B4, the binding result in series [4] is “binds”.

B5: N-terminal HA-tagged BAK (other, murine, UniProt O08734 1-209, looked up)
chain: MASGQGPGPPKVGCDESPSPSEQQVAQDTEEVFRSYVFYLHQQEQETQGAAAPANPEMDNLPLEPNSILGQVGRQLALIGDDINRRYDTEFQNLLEQLQPTAGNAYELFTKIASSLFKSGISWGRVVALLGFGYRLALYVYQRGLTGFLGQVTCFLADIILHHYIARWIAQRGGWVAALNFRRDPILTVMVIFGVVLLGQFVVHRFFRS
notes: also called HA-BAK; not shown: N-terminal HA tag
As for B5, the binding result in [5] is reported as “no binding”.

B6: PUMA (endogenous, induced by etoposide) (other, mouse, UniProt Q99ML1 1-193, looked up)
chain: MARARQEGSSPEPVEGLARDSPRPFPLGRLMPSAVSCSLCEPGLPAAPAAPALLPAAYLCAPTAPPAVTAALGGPRWPGGHRSRPRGPRPDGPQPSLSPAQQHLESPVPSAPEALAGGPTQAAPGVRVEEEEWAREIGAQLRRMADDLNAQYERRRQEEQHRHRPSPWRVMYNLFMGLLPLPRDPGAPEMEPN
notes: also called induced PUMA
Take B6: in [6], the binding result was “binds”. Moreover, the “interaction with HA-tagged VDAC2 (co-immunoprecipitation)” value with VDAC2 is listed as “stable interaction”.
